This assay has as its target 3×FLAG–SpaO^L-V5pBpa (Salmonella enterica serovar Typhimurium SL1344) (UniProt P40699). As to the kind of experiment: cross-linking.
Chain of UniProt P40699 (P40699 whole entry, looked up): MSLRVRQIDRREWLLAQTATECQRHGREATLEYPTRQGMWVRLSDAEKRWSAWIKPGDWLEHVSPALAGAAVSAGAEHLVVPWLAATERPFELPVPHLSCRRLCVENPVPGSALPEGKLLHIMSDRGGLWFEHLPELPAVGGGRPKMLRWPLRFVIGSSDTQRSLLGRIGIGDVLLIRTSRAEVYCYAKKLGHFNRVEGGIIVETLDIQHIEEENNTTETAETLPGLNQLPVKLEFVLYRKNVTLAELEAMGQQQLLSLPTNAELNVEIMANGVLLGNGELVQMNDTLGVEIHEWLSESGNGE

The substance “M45-SpaO^short F34pBpa (natural protein)” registered a stoichiometry N (SpaO^short per SpaO^L) of 2.

These data come from paper doi:10.1101/2025.05.15.654217.
